# Source: the RNAGym collection of RNA variant scans (doi:10.1021/acssynbio.7b00057)
# B1: Pistol ribozyme (parent)
# chain: GGGUCGUUGUUCCAUAAUCGCGUGGAUAUGGCACGCAAGUUUCUACCGGGCACCGUAAAUGUCCGACUGGAGCCGUUCGGGCGGCUAUAAACAGACCUCAGGCCCGAAGCGUGGCGGCACCUGCCGCCGGUGGUAAAAAAGAUCGGAAGAGCACACGUCU
# Variants of: B1
# Test: aptazyme ON/OFF ratio, guanine; higher = stronger switching; co-transcriptional cleavage with and without guanine
row,Variant,aptazyme ON/OFF ratio
1,GGGUCGGGCUUUUAUAAUCGCGUGGAUAUGGCACGCAAGUUUCUACCGGGCACCGUAAAUGUCCGACUGGAGCCGUUCGGGCGGCUAUAAACAGACCUCAGGCCCGAAGCGUGGCGGCACCUGCCGCCGGUGGUAAAAAAGAUCGGAAGAGCACACGUCU [U7G U8G G9C C12U C13U],1.12
2,GGGUCGGGCAAGAAUAAUCGCGUGGAUAUGGCACGCAAGUUUCUACCGGGCACCGUAAAUGUCCGACUGGAGCCGUUCGGGCGGCUAUAAACAGACCUCAGGCCCGAAGCGUGGCGGCACCUGCCGCCGGUGGUAAAAAAGAUCGGAAGAGCACACGUCU [U7G U8G G9C U10A U11A C12G C13A],1.08
3,GGGUCGGGCAAGGAUAAUCGCGUGGAUAUGGCACGCAAGUUUCUACCGGGCACCGUAAAUGUCCGACUGGAGCCGUUCGGGCGGCUAUAAACAGACCUCAGGCCCGAAGCGUGGCGGCACCUGCCGCCGGUGGUAAAAAAGAUCGGAAGAGCACACGUCU [U7G U8G G9C U10A U11A C12G C13G],1.05
4,GGGUCGGGCAAGUAUAAUCGCGUGGAUAUGGCACGCAAGUUUCUACCGGGCACCGUAAAUGUCCGACUGGAGCCGUUCGGGCGGCUAUAAACAGACCUCAGGCCCGAAGCGUGGCGGCACCUGCCGCCGGUGGUAAAAAAGAUCGGAAGAGCACACGUCU [U7G U8G G9C U10A U11A C12G C13U],1.02
5,GGGUCGGGCAAGCAUAAUCGCGUGGAUAUGGCACGCAAGUUUCUACCGGGCACCGUAAAUGUCCGACUGGAGCCGUUCGGGCGGCUAUAAACAGACCUCAGGCCCGAAGCGUGGCGGCACCUGCCGCCGGUGGUAAAAAAGAUCGGAAGAGCACACGUCU [U7G U8G G9C U10A U11A C12G],1.07
6,GGGUCGGGCAAUCAUAAUCGCGUGGAUAUGGCACGCAAGUUUCUACCGGGCACCGUAAAUGUCCGACUGGAGCCGUUCGGGCGGCUAUAAACAGACCUCAGGCCCGAAGCGUGGCGGCACCUGCCGCCGGUGGUAAAAAAGAUCGGAAGAGCACACGUCU [U7G U8G G9C U10A U11A C12U],1.07
7,GGGUCGGGCAAACAUAAUCGCGUGGAUAUGGCACGCAAGUUUCUACCGGGCACCGUAAAUGUCCGACUGGAGCCGUUCGGGCGGCUAUAAACAGACCUCAGGCCCGAAGCGUGGCGGCACCUGCCGCCGGUGGUAAAAAAGAUCGGAAGAGCACACGUCU [U7G U8G G9C U10A U11A C12A],1.07
8,GGGUCGGGCAUCCAUAAUCGCGUGGAUAUGGCACGCAAGUUUCUACCGGGCACCGUAAAUGUCCGACUGGAGCCGUUCGGGCGGCUAUAAACAGACCUCAGGCCCGAAGCGUGGCGGCACCUGCCGCCGGUGGUAAAAAAGAUCGGAAGAGCACACGUCU [U7G U8G G9C U10A],1.58
9,GGGUCGGGCAUCUAUAAUCGCGUGGAUAUGGCACGCAAGUUUCUACCGGGCACCGUAAAUGUCCGACUGGAGCCGUUCGGGCGGCUAUAAACAGACCUCAGGCCCGAAGCGUGGCGGCACCUGCCGCCGGUGGUAAAAAAGAUCGGAAGAGCACACGUCU [U7G U8G G9C U10A C13U],1.03
10,GGGUCGGGCAUCAAUAAUCGCGUGGAUAUGGCACGCAAGUUUCUACCGGGCACCGUAAAUGUCCGACUGGAGCCGUUCGGGCGGCUAUAAACAGACCUCAGGCCCGAAGCGUGGCGGCACCUGCCGCCGGUGGUAAAAAAGAUCGGAAGAGCACACGUCU [U7G U8G G9C U10A C13A],1.05
11,GGGUCGGGCAUCGAUAAUCGCGUGGAUAUGGCACGCAAGUUUCUACCGGGCACCGUAAAUGUCCGACUGGAGCCGUUCGGGCGGCUAUAAACAGACCUCAGGCCCGAAGCGUGGCGGCACCUGCCGCCGGUGGUAAAAAAGAUCGGAAGAGCACACGUCU [U7G U8G G9C U10A C13G],1.01
12,GGGUCGGGCAACGAUAAUCGCGUGGAUAUGGCACGCAAGUUUCUACCGGGCACCGUAAAUGUCCGACUGGAGCCGUUCGGGCGGCUAUAAACAGACCUCAGGCCCGAAGCGUGGCGGCACCUGCCGCCGGUGGUAAAAAAGAUCGGAAGAGCACACGUCU [U7G U8G G9C U10A U11A C13G],1.02
13,GGGUCGGGCAACUAUAAUCGCGUGGAUAUGGCACGCAAGUUUCUACCGGGCACCGUAAAUGUCCGACUGGAGCCGUUCGGGCGGCUAUAAACAGACCUCAGGCCCGAAGCGUGGCGGCACCUGCCGCCGGUGGUAAAAAAGAUCGGAAGAGCACACGUCU [U7G U8G G9C U10A U11A C13U],1.07
14,GGGUCGGGCAACAAUAAUCGCGUGGAUAUGGCACGCAAGUUUCUACCGGGCACCGUAAAUGUCCGACUGGAGCCGUUCGGGCGGCUAUAAACAGACCUCAGGCCCGAAGCGUGGCGGCACCUGCCGCCGGUGGUAAAAAAGAUCGGAAGAGCACACGUCU [U7G U8G G9C U10A U11A C13A],1.06
15,GGGUCGGGCAUAAAUAAUCGCGUGGAUAUGGCACGCAAGUUUCUACCGGGCACCGUAAAUGUCCGACUGGAGCCGUUCGGGCGGCUAUAAACAGACCUCAGGCCCGAAGCGUGGCGGCACCUGCCGCCGGUGGUAAAAAAGAUCGGAAGAGCACACGUCU [U7G U8G G9C U10A C12A C13A],1.03
16,GGGUCGGGCAUAGAUAAUCGCGUGGAUAUGGCACGCAAGUUUCUACCGGGCACCGUAAAUGUCCGACUGGAGCCGUUCGGGCGGCUAUAAACAGACCUCAGGCCCGAAGCGUGGCGGCACCUGCCGCCGGUGGUAAAAAAGAUCGGAAGAGCACACGUCU [U7G U8G G9C U10A C12A C13G],1.04
17,GGGUCGGGCAUAUAUAAUCGCGUGGAUAUGGCACGCAAGUUUCUACCGGGCACCGUAAAUGUCCGACUGGAGCCGUUCGGGCGGCUAUAAACAGACCUCAGGCCCGAAGCGUGGCGGCACCUGCCGCCGGUGGUAAAAAAGAUCGGAAGAGCACACGUCU [U7G U8G G9C U10A C12A C13U],1.04
18,GGGUCGGGCAAUAAUAAUCGCGUGGAUAUGGCACGCAAGUUUCUACCGGGCACCGUAAAUGUCCGACUGGAGCCGUUCGGGCGGCUAUAAACAGACCUCAGGCCCGAAGCGUGGCGGCACCUGCCGCCGGUGGUAAAAAAGAUCGGAAGAGCACACGUCU [U7G U8G G9C U10A U11A C12U C13A],1.08

row,Variant,aptazyme ON/OFF ratio
1,GGGUCGGGCAAUUAUAAUCGCGUGGAUAUGGCACGCAAGUUUCUACCGGGCACCGUAAAUGUCCGACUGGAGCCGUUCGGGCGGCUAUAAACAGACCUCAGGCCCGAAGCGUGGCGGCACCUGCCGCCGGUGGUAAAAAAGAUCGGAAGAGCACACGUCU [U7G U8G G9C U10A U11A C12U C13U],1.02
2,GGGUCGGGCAAUGAUAAUCGCGUGGAUAUGGCACGCAAGUUUCUACCGGGCACCGUAAAUGUCCGACUGGAGCCGUUCGGGCGGCUAUAAACAGACCUCAGGCCCGAAGCGUGGCGGCACCUGCCGCCGGUGGUAAAAAAGAUCGGAAGAGCACACGUCU [U7G U8G G9C U10A U11A C12U C13G],1.03
3,GGGUCGGGCAACCAUAAUCGCGUGGAUAUGGCACGCAAGUUUCUACCGGGCACCGUAAAUGUCCGACUGGAGCCGUUCGGGCGGCUAUAAACAGACCUCAGGCCCGAAGCGUGGCGGCACCUGCCGCCGGUGGUAAAAAAGAUCGGAAGAGCACACGUCU [U7G U8G G9C U10A U11A],1.67
4,GGGUCGGGCUUCUAUAAUCGCGUGGAUAUGGCACGCAAGUUUCUACCGGGCACCGUAAAUGUCCGACUGGAGCCGUUCGGGCGGCUAUAAACAGACCUCAGGCCCGAAGCGUGGCGGCACCUGCCGCCGGUGGUAAAAAAGAUCGGAAGAGCACACGUCU [U7G U8G G9C C13U],1.47
5,GGGUCGGGCUUCGAUAAUCGCGUGGAUAUGGCACGCAAGUUUCUACCGGGCACCGUAAAUGUCCGACUGGAGCCGUUCGGGCGGCUAUAAACAGACCUCAGGCCCGAAGCGUGGCGGCACCUGCCGCCGGUGGUAAAAAAGAUCGGAAGAGCACACGUCU [U7G U8G G9C C13G],1.16
6,GGGUCGGGCUUCAAUAAUCGCGUGGAUAUGGCACGCAAGUUUCUACCGGGCACCGUAAAUGUCCGACUGGAGCCGUUCGGGCGGCUAUAAACAGACCUCAGGCCCGAAGCGUGGCGGCACCUGCCGCCGGUGGUAAAAAAGAUCGGAAGAGCACACGUCU [U7G U8G G9C C13A],1.42
7,GGGUCGGGCAUUGAUAAUCGCGUGGAUAUGGCACGCAAGUUUCUACCGGGCACCGUAAAUGUCCGACUGGAGCCGUUCGGGCGGCUAUAAACAGACCUCAGGCCCGAAGCGUGGCGGCACCUGCCGCCGGUGGUAAAAAAGAUCGGAAGAGCACACGUCU [U7G U8G G9C U10A C12U C13G],1.03
8,GGGUCGGGCAUUAAUAAUCGCGUGGAUAUGGCACGCAAGUUUCUACCGGGCACCGUAAAUGUCCGACUGGAGCCGUUCGGGCGGCUAUAAACAGACCUCAGGCCCGAAGCGUGGCGGCACCUGCCGCCGGUGGUAAAAAAGAUCGGAAGAGCACACGUCU [U7G U8G G9C U10A C12U C13A],1.01
9,GGGUCGGGCAUUUAUAAUCGCGUGGAUAUGGCACGCAAGUUUCUACCGGGCACCGUAAAUGUCCGACUGGAGCCGUUCGGGCGGCUAUAAACAGACCUCAGGCCCGAAGCGUGGCGGCACCUGCCGCCGGUGGUAAAAAAGAUCGGAAGAGCACACGUCU [U7G U8G G9C U10A C12U C13U],1.04
10,GGGUCGGGCAUGUAUAAUCGCGUGGAUAUGGCACGCAAGUUUCUACCGGGCACCGUAAAUGUCCGACUGGAGCCGUUCGGGCGGCUAUAAACAGACCUCAGGCCCGAAGCGUGGCGGCACCUGCCGCCGGUGGUAAAAAAGAUCGGAAGAGCACACGUCU [U7G U8G G9C U10A C12G C13U],1.04
11,GGGUCGGGCAUGAAUAAUCGCGUGGAUAUGGCACGCAAGUUUCUACCGGGCACCGUAAAUGUCCGACUGGAGCCGUUCGGGCGGCUAUAAACAGACCUCAGGCCCGAAGCGUGGCGGCACCUGCCGCCGGUGGUAAAAAAGAUCGGAAGAGCACACGUCU [U7G U8G G9C U10A C12G C13A],1.05
12,GGGUCGGGCAUGGAUAAUCGCGUGGAUAUGGCACGCAAGUUUCUACCGGGCACCGUAAAUGUCCGACUGGAGCCGUUCGGGCGGCUAUAAACAGACCUCAGGCCCGAAGCGUGGCGGCACCUGCCGCCGGUGGUAAAAAAGAUCGGAAGAGCACACGUCU [U7G U8G G9C U10A C12G C13G],1.04
13,GGGUCGGGCAUACAUAAUCGCGUGGAUAUGGCACGCAAGUUUCUACCGGGCACCGUAAAUGUCCGACUGGAGCCGUUCGGGCGGCUAUAAACAGACCUCAGGCCCGAAGCGUGGCGGCACCUGCCGCCGGUGGUAAAAAAGAUCGGAAGAGCACACGUCU [U7G U8G G9C U10A C12A],1.03
14,GGGUCGGGCAUGCAUAAUCGCGUGGAUAUGGCACGCAAGUUUCUACCGGGCACCGUAAAUGUCCGACUGGAGCCGUUCGGGCGGCUAUAAACAGACCUCAGGCCCGAAGCGUGGCGGCACCUGCCGCCGGUGGUAAAAAAGAUCGGAAGAGCACACGUCU [U7G U8G G9C U10A C12G],1.03
15,GGGUCGGGCAUUCAUAAUCGCGUGGAUAUGGCACGCAAGUUUCUACCGGGCACCGUAAAUGUCCGACUGGAGCCGUUCGGGCGGCUAUAAACAGACCUCAGGCCCGAAGCGUGGCGGCACCUGCCGCCGGUGGUAAAAAAGAUCGGAAGAGCACACGUCU [U7G U8G G9C U10A C12U],1.02
16,GGGUCGGGCAAAAAUAAUCGCGUGGAUAUGGCACGCAAGUUUCUACCGGGCACCGUAAAUGUCCGACUGGAGCCGUUCGGGCGGCUAUAAACAGACCUCAGGCCCGAAGCGUGGCGGCACCUGCCGCCGGUGGUAAAAAAGAUCGGAAGAGCACACGUCU [U7G U8G G9C U10A U11A C12A C13A],1.05
17,GGGUCGGGCAAAUAUAAUCGCGUGGAUAUGGCACGCAAGUUUCUACCGGGCACCGUAAAUGUCCGACUGGAGCCGUUCGGGCGGCUAUAAACAGACCUCAGGCCCGAAGCGUGGCGGCACCUGCCGCCGGUGGUAAAAAAGAUCGGAAGAGCACACGUCU [U7G U8G G9C U10A U11A C12A C13U],1.04
18,GGGUCGGGCAAAGAUAAUCGCGUGGAUAUGGCACGCAAGUUUCUACCGGGCACCGUAAAUGUCCGACUGGAGCCGUUCGGGCGGCUAUAAACAGACCUCAGGCCCGAAGCGUGGCGGCACCUGCCGCCGGUGGUAAAAAAGAUCGGAAGAGCACACGUCU [U7G U8G G9C U10A U11A C12A C13G],1.04
